Measured values: IntAct's records for PubMed 31515488

B1: DCC-interacting protein 13-alpha (Homo sapiens), Q9UKG1 (parent)
chain: MPGIDKLPIEETLEDSPQTRSLLGVFEEDATAISNYMNQLYQAMHRIYDAQNELSAATHLTSKLLKEYEKQRFPLGGDDEVMSSTLQQFSKVIDELSSCHAVLSTQLADAMMFPITQFKERDLKEILTLKEVFQIASNDHDAAINRYSRLSKKRENDKVKYEVTEDVYTSRKKQHQTMMHYFCALNTLQYKKKIALLEPLLGYMQAQISFFKMGSENLNEQLEEFLANIGTSVQNVRREMDSDIETMQQTIEDLEVASDPLYVPDPDPTKFPVNRNLTRKAGYLNARNKTGLVSSTWDRQFYFTQGGNLMSQARGDVAGGLAMDIDNCSVMAVDCEDRRYCFQITSFDGKKSSILQAESKKDHEEWICTINNISKQIYLSENPEETAARVNQSALEAVTPSPSFQQRHESLRPAAGQSRPPTARTSSSGSLGSESTNLAALSLDSLVAPDTPIQFDIISPVCEDQPGQAKAFGQGGRRTNPFGESGGSTKSETEDSILHQLFIVRFLGSMEVKSDDHPDVVYETMRQILAARAIHNIFRMTESHLLVTCDCLKLIDPQTQVTRLTFPLPCVVLYATHQENKRLFGFVLRTSSGRSESNLSSVCYIFESNNEGEKICDSVGLAKQIALHAELDRRASEKQKEIERVKEKQQKELNKQKQIEKDLEEQSRLIAASSRPNQASSEGQFVVLSSSQSEESDLGEGGKKRESEA
partner: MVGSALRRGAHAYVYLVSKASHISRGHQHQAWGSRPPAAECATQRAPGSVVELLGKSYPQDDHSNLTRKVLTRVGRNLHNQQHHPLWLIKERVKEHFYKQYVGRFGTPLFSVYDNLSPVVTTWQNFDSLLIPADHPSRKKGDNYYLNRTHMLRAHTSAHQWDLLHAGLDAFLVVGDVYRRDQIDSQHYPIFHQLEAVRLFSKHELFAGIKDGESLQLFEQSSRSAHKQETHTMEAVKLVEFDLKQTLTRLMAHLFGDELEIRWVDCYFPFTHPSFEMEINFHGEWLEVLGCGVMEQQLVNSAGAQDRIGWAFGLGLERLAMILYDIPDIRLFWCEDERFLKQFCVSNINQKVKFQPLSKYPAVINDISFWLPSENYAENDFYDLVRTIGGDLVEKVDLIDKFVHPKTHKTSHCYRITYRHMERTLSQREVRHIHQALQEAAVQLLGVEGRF
B2: Four and a half LIM domains protein 5 (Homo sapiens), Q5TD97 (parent)
chain: MTTAHFYCQYCTASLLGKKYVLKDDSPYCVTCYDRVFSNYCEECKKPIESDSKDLCYKDRHWHEGCFKCTKCNHSLVEKPFAAKDERLLCTECYSNECSSKCFHCKRTIMPGSRKMEFKGNYWHETCFVCENCRQPIGTKPLISKESGNYCVPCFEKEFAHYCNFCKKVITSGGITFCDQLWHKECFLCSGCRKDLCEEQFMSRDDYPFCVDCYNHLYANKCVACSKPISGLTGAKFICFQDSQWHSECFNCGKCSVSLVGKGFLTQNKEIFCQKCGSGMDTDI
partner: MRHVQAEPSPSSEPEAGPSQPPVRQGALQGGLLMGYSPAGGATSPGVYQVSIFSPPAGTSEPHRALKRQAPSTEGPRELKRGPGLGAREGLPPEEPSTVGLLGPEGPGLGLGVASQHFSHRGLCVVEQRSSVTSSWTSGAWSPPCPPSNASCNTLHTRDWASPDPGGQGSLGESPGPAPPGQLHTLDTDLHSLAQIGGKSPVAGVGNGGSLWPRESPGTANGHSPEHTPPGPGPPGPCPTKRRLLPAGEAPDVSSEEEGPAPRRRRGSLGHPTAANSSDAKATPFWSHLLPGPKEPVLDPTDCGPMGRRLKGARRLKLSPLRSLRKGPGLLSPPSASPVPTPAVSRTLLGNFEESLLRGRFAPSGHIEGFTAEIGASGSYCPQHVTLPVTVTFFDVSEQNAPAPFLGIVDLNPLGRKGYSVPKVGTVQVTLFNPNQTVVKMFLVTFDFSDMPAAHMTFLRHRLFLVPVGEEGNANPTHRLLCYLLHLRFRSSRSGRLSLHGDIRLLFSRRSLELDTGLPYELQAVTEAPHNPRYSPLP

Variants of: B1
Settings: with syfm_human FARS2, O95363

| Variant | effect of a mutation on the interaction |
| --- | --- |
| E67G | with no effect |

Variants of: B2
Settings: with atosb_human ATOSB

| Variant | effect of a mutation on the interaction |
| --- | --- |
| R60W | with no effect |
| M202L | with no effect |
| D24Y | with no effect |
| R204G | with no effect |
